From patent US8440804B2, “Polypeptides having modulatory effects on cells” (Ecole Normale Superieure de Lyon, priority 2006, dated 2013)

Legend:
[1] = tested on: purified CNA (calcineurin); test: In vitro calcineurin phosphatase assay (pNPP substrate); format: biochemical
Procedure: (A) In vitro calcineurin phosphatase assay. Dephosphorylation of the model substrate pNPP by purified calcineurin was measured in presence of various amounts of purified calmodulin (CaM), GST-R5G42 or GST-R7G44 fusion proteins.
The inventors next explored the ability of R5G42 to modulate the enzymatic activity of its target protein. To this end, they first performed an in vitro phosphatase assay using purified CNA and para-nitrophenylphosphate (pNPP) as a substrate.
GST-aptamer fusion proteins were first produced as described above. For this experiment, GST-aptamer fusion proteins were eluted from glutathion sepharose beads using 20 mM reduced L-glutathione (Sigma), and the eluates were dialyzed overnight against a phosphatase buffer (50 mM Tris-HCl pH7.4, 0.1 mM CaCl2). The phosphatase activity of calcineurin was measured using pNPP (Sigma) as substrate, in a final volume of 100 μl. The sample solution contained 50 mM Tris-HCl (pH7.4), 0.1 mM CaCl2, 1 mM NiSO4, 0.15 mg/ml BSA (Sigma), 0.1 μM calcineurin (Upstate). Purified calmodulin (Upstate) and GST-aptamer fusion proteins were added at different concentrations (see figure legend). After a 15 min pre-incubation at 37° C., the reactions were started by adding 4.1 mM pNPP and the mixtures were incubated at 37° C. for 20 min. The nitrophenylate product was measured at 405 nm using an Envision plate reader (Perkin Elmer). The background level that was determined was subtracted using a mixture lacking calcineurin.

[2] = tested on: purified CNA (bovine brain purified calcineurin); test: In vitro binding assay (affinity capture on glutathione-sepharose, western blot); conditions: glutathione-sepharose beads, anti-calcineurin western blot
Excerpt: (C) Affinity capture assay.
The inventors performed two yeast two-hybrid screening experiments against a LexA-R5G42 bait protein, using a human testis and a human fcetal brain cDNA library. They obtained 29 and 42 reconfirmed clones, respectively. […] The inventors thus retained two candidates. The highest occurring clone, from both libraries, corresponded to the NS5A-TP2 protein, recently discovered through a systematic search for genes that are transactivated by the non-structural NS5A protein from hepatitis C virus (22). No biological knowledge is currently available for this protein. The other remaining target candidate was calcineurin A (CNA), for which two different isoforms (beta and gamma) were selected from the testes library (see FIG. 3A). To confirm the interaction between R5G42 and CNA, the inventors performed an in vitro binding assay between recombinant purified GST-aptamer fusion proteins, coupled to a glutathione-sepharose matrix, and purified CNA.
In Vitro Binding Assay pVRV6-aptamer plasmids were first digested with EcoRI and XhoI and the fragments were ligated into EcoRI/XhoI-cut pGEX4T1. GST-aptamer fusions were expressed in a BL-21(DE3) E. coli strain. […] The samples were loaded onto a SDS-PAGE, transferred to nitrocellulose membrane, and calcineurin was detected by western-blotting using an anti-calcineurin pan A antibody (1/1000, Chemicon International). […]

Row | Molecule | activation of CNA phosphatase activity ([1]; addition of purified calmodulin, pNPP) | CNA phosphatase activity in absence of CaM ([1]; high concentrations of GST-aptamer, pNPP, 0.1 μM calcineurin) | effect on CaM-activated CNA phosphatase activity ([1]; in presence of CaM (not shown)) | capture of purified CNA by GST-aptamer solid phase [2]
1 | calmodulin [CaM, reference compound] | required to activate CNA | – | – | –
2 | GST-R5G42: recombinant purified GST-aptamer fusion protein of R5G42 (protein, left off: a dimerising Fc or GST) MVKQIESKTAFQEALDAAGDKLVVVDFSATWCGPSAVTFAVCALGPCKMIKPFFHSLSEKYSNVIFLEVDVDDCQDVASECEVKCMPTFQFFKKGQKVGEFSGANKEKLEATINELV | – | activated CNA phosphatase activity in absence of CaM, to a level comparable to that observed using CaM | did not result in an inhibition or an exacerbation | readily captured CNA
